# Results from the Human Domainome abundance scans (Beltran et al. 2025).
# ± gives the uncertainty stated by the source.
# B1: Intersectin-1, residues 1156 to 1213; numbered along this chain, Q15811 (parent)
# chain: AVCQVIGMYDYTAQNDDELAFNKGQIINVLNKEDPDWWKGEVNGQVGLFPSNYVKLTT
# Variants of: B1
# Assay: abundance fitness (aPCA) (normalised: wild type 0, dead -1); higher = more abundant; growth selection in yeast, the domain comes from the species named
# Conditions: Homo sapiens
row,Variant,abundance fitness
1,AVCQVIGMYDYTAQNDDELAFNKGQIINVLNKEDPDWWKGEVNGQVGLFPSNYCKLTT,-0.367 ± 0.12
2,AVCQVIGMYDYTAQNDDELAFNKGQIINVLNKEDPDWWKGEVNGQVGLFPSNYDKLTT,-0.943 ± 0.31
3,AVCQVIGMYDYTAQNDDELAFNKGQIINVLNKEDPDWWKGEVNGQVGLFPSNYEKLTT,-0.931 ± 0.33
4,AVCQVIGMYDYTAQNDDELAFNKGQIINVLNKEDPDWWKGEVNGQVGLFPSNYFKLTT,-0.806 ± 0.25
5,AVCQVIGMYDYTAQNDDELAFNKGQIINVLNKEDPDWWKGEVNGQVGLFPSNYGKLTT,-0.836 ± 0.12
6,AVCQVIGMYDYTAQNDDELAFNKGQIINVLNKEDPDWWKGEVNGQVGLFPSNYHKLTT,-0.767 ± 0.23
7,AVCQVIGMYDYTAQNDDELAFNKGQIINVLNKEDPDWWKGEVNGQVGLFPSNYIKLTT,-0.773 ± 0.16
8,AVCQVIGMYDYTAQNDDELAFNKGQIINVLNKEDPDWWKGEVNGQVGLFPSNYKKLTT,-0.906 ± 0.24
9,AVCQVIGMYDYTAQNDDELAFNKGQIINVLNKEDPDWWKGEVNGQVGLFPSNYLKLTT,-0.854 ± 0.14
10,AVCQVIGMYDYTAQNDDELAFNKGQIINVLNKEDPDWWKGEVNGQVGLFPSNYMKLTT,-0.755 ± 0.27
11,AVCQVIGMYDYTAQNDDELAFNKGQIINVLNKEDPDWWKGEVNGQVGLFPSNYNKLTT,-0.758 ± 0.21
12,AVCQVIGMYDYTAQNDDELAFNKGQIINVLNKEDPDWWKGEVNGQVGLFPSNYPKLTT,-0.842 ± 0.17
13,AVCQVIGMYDYTAQNDDELAFNKGQIINVLNKEDPDWWKGEVNGQVGLFPSNYQKLTT,-0.904 ± 0.22
14,AVCQVIGMYDYTAQNDDELAFNKGQIINVLNKEDPDWWKGEVNGQVGLFPSNYRKLTT,-0.684 ± 0.094
15,AVCQVIGMYDYTAQNDDELAFNKGQIINVLNKEDPDWWKGEVNGQVGLFPSNYSKLTT,-0.874 ± 0.12
16,AVCQVIGMYDYTAQNDDELAFNKGQIINVLNKEDPDWWKGEVNGQVGLFPSNYTKLTT,-0.065 ± 0.14
17,AVCQVIGMYDYTAQNDDELAFNKGQIINVLNKEDPDWWKGEVNGQVGLFPSNYWKLTT,-0.762 ± 0.14
18,AVCQVIGMYDYTAQNDDELAFNKGQIINVLNKEDPDWWKGEVNGQVGLFPSNYYKLTT,-0.766 ± 0.26
19,AVCQVIGMYDYTAQNDDELAFNKGQIINVLNKEDPDWWKGEVNGQVGLFPSNYVALTT,-0.146 ± 0.1
20,AVCQVIGMYDYTAQNDDELAFNKGQIINVLNKEDPDWWKGEVNGQVGLFPSNYVCLTT,-0.098 ± 0.15
21,AVCQVIGMYDYTAQNDDELAFNKGQIINVLNKEDPDWWKGEVNGQVGLFPSNYVDLTT,-0.513 ± 0.15
22,AVCQVIGMYDYTAQNDDELAFNKGQIINVLNKEDPDWWKGEVNGQVGLFPSNYVFLTT,-0.614 ± 0.17

row,Variant,abundance fitness
1,AVCQVIGMYDYTAQNDDELAFNKGQIINVLNKEDPDWWKGEVNGQVGLFPSNYVHLTT,-0.431 ± 0.18
2,AVCQVIGMYDYTAQNDDELAFNKGQIINVLNKEDPDWWKGEVNGQVGLFPSNYVILTT,-0.325 ± 0.21
3,AVCQVIGMYDYTAQNDDELAFNKGQIINVLNKEDPDWWKGEVNGQVGLFPSNYVLLTT,-0.318 ± 0.089
4,AVCQVIGMYDYTAQNDDELAFNKGQIINVLNKEDPDWWKGEVNGQVGLFPSNYVMLTT,0.024 ± 0.16
5,AVCQVIGMYDYTAQNDDELAFNKGQIINVLNKEDPDWWKGEVNGQVGLFPSNYVNLTT,-0.456 ± 0.17
6,AVCQVIGMYDYTAQNDDELAFNKGQIINVLNKEDPDWWKGEVNGQVGLFPSNYVPLTT,-0.797 ± 0.16
7,AVCQVIGMYDYTAQNDDELAFNKGQIINVLNKEDPDWWKGEVNGQVGLFPSNYVQLTT,-0.177 ± 0.16
8,AVCQVIGMYDYTAQNDDELAFNKGQIINVLNKEDPDWWKGEVNGQVGLFPSNYVRLTT,0.067 ± 0.084
9,AVCQVIGMYDYTAQNDDELAFNKGQIINVLNKEDPDWWKGEVNGQVGLFPSNYVSLTT,-0.004 ± 0.084
10,AVCQVIGMYDYTAQNDDELAFNKGQIINVLNKEDPDWWKGEVNGQVGLFPSNYVTLTT,-0.225 ± 0.11
11,AVCQVIGMYDYTAQNDDELAFNKGQIINVLNKEDPDWWKGEVNGQVGLFPSNYVWLTT,-0.678 ± 0.17
12,AVCQVIGMYDYTAQNDDELAFNKGQIINVLNKEDPDWWKGEVNGQVGLFPSNYVYLTT,-0.427 ± 0.15
13,AVCQVIGMYDYTAQNDDELAFNKGQIINVLNKEDPDWWKGEVNGQVGLFPSNYVKATT,0.08 ± 0.093
14,AVCQVIGMYDYTAQNDDELAFNKGQIINVLNKEDPDWWKGEVNGQVGLFPSNYVKCTT,0.266 ± 0.13
15,AVCQVIGMYDYTAQNDDELAFNKGQIINVLNKEDPDWWKGEVNGQVGLFPSNYVKDTT,-0.106 ± 0.15
16,AVCQVIGMYDYTAQNDDELAFNKGQIINVLNKEDPDWWKGEVNGQVGLFPSNYVKETT,0.005 ± 0.13
17,AVCQVIGMYDYTAQNDDELAFNKGQIINVLNKEDPDWWKGEVNGQVGLFPSNYVKFTT,-0.124 ± 0.16
18,AVCQVIGMYDYTAQNDDELAFNKGQIINVLNKEDPDWWKGEVNGQVGLFPSNYVKGTT,-0.102 ± 0.079
19,AVCQVIGMYDYTAQNDDELAFNKGQIINVLNKEDPDWWKGEVNGQVGLFPSNYVKHTT,-0.334 ± 0.24
20,AVCQVIGMYDYTAQNDDELAFNKGQIINVLNKEDPDWWKGEVNGQVGLFPSNYVKITT,0.069 ± 0.2
21,AVCQVIGMYDYTAQNDDELAFNKGQIINVLNKEDPDWWKGEVNGQVGLFPSNYVKMTT,-0.148 ± 0.12
22,AVCQVIGMYDYTAQNDDELAFNKGQIINVLNKEDPDWWKGEVNGQVGLFPSNYVKNTT,-0.149 ± 0.22
